Assay results: patent publication US12122830 (ABL BIO, dated 2024)

Experiments:
[1] = target: T1, human ROR1 expressed on the cell surface (human, UniProt Q01973 30-937); assay: flow cytometry on MKN-28 cells (gastric cancer), C2E3 IgG at 10 µg/mL, MFI of anti-ROR1 / MFI of 2nd Ab
T1 construct: whole, on cells; On JeKo-1 and Mino cells and other cancer cell lines (endogenous) and on transfected CHO and MC38 cells; also called cell surface-expressed ROR1; CHO-human ROR1
Method: (§1) For the cell lines, the binding to ROR1 was analyzed with FACS (FACSCalibur, BD Biosciences) by using the anti-ROR1 antibody of the present invention.
(§2) Specifically, after disassociating each cell line and washing in PBS, the number of cells was counted and set as 2 ×10^5 cells/200 µl PBS, and then the clone C2E3 among ROR1 monoclonal antibodies prepared in Example 3 was treated in 10 µg/mL, and it was reacted at 4° C. for 1 hour. After reaction, cells were washed in PBS, and then the FITC-labeled constant region (Fc)-specific antibody (Goat anti-human IgG FITC conjugate, Fc specific, Sigma, F9512, concentration: 2.0 mg/ml) was suspended in 2 µl/1 ×10^5 cells/200 µl PBS, and it was reacted at 4° C. for 1 hour. After reaction, cells were washed in PBS, it was analyzed using a FACSCalibur device. The negative control group was treated only with the FITC-labeled constant region (Fc)-specific antibody. To compare the expression degrees of ROR1 among the cancer cell lines, the value of the result for the peak shift in the experimental group treated with the ROR1 monoclonal antibody (C2E3) of the present invention was divided by the result for the peak shift in the control group (Mean Fluorescence Intensity Ratio MFI Ratio: MFI of anti-ROR1/MFI of 2nd Ab).

[2] = target: T1, human ROR1 expressed on the cell surface; assay: flow cytometry on DLD-1 cells (colon cancer), C2E3 IgG at 10 µg/mL, MFI of anti-ROR1 / MFI of 2nd Ab
Method: as §1, §2

[3] = target: T1, human ROR1 expressed on the cell surface; assay: flow cytometry on MDA-MB-231 cells (breast cancer), C2E3 IgG at 10 µg/mL, MFI of anti-ROR1 / MFI of 2nd Ab
Method: as §1, §2

[4] = target: T1, human ROR1 expressed on the cell surface; assay: flow cytometry on SNU-16 cells (gastric cancer), C2E3 IgG at 10 µg/mL, MFI of anti-ROR1 / MFI of 2nd Ab
Method: as §1, §2

[5] = target: T1, human ROR1 expressed on the cell surface; assay: flow cytometry on Calu-6 cells (lung cancer), C2E3 IgG at 10 µg/mL, MFI of anti-ROR1 / MFI of 2nd Ab
Method: as §1, §2

[6] = target: T1, human ROR1 expressed on the cell surface; assay: flow cytometry on BT20 cells (breast cancer), C2E3 IgG at 10 µg/mL, MFI of anti-ROR1 / MFI of 2nd Ab
Method: as §1, §2

[7] = target: T2, recombinant mouse ROR1 protein (Acrobiosystems, RO1-M5221) (mouse, UniProt Q9Z139 30-406); assay: ELISA, recombinant mouse ROR1 protein coated at 1 µg/ml, IgG titrated, HRP anti-Fab detection
T2 construct: extracellular domain; Bought; also called mouse ROR1 antigen
Method: The anti-ROR1 antibody-antigen binding affinity was estimated by using an ELISA-based solution binding test. Specifically, a 96-well microtiter plate (Nunc-Immuno Plates, NUNC) was coated with the ROR1 protein at a concentration of 1 µg/ml in a PBS solution as described below at 4° C. for 16 hours, and non-specific binding sites were blocked with 3% BSA (bovine serum albumin) for 2 hours. For this, as the ROR1 protein, in case of human ROR1, ROR1-Fc of Example 1 or recombinant ROR1-His (Sino Biological, 13968-H08H) was used. The ROR1-His used for ELISA was a protein of sino biological company (13968-H08H) as described in the above sentence, and ROR1-His of Example 1 or recombinant mouse ROR1 protein was used (Acrobiosystems, RO1-M5221-100 µg).
Then, after adding the anti-ROR1 antibody prepared in Example 3 at the concentration described in FIG. 2 into the microtiter plate on a 96-well microtiter plate, the binding capacity was analyzed with ELISA as follows. Specifically, after constant temperature treatment for 2 hours, the plate was washed with PBS comprising 0.05% tween 20 5 times, and then a HRP-conjugated Fab multiclonal antibody reagent (Pierce, 31414) was diluted at 1:10,000 ratio, and was put into the washed microtiter plate, and it was incubated at 37° C. for 1 hour, and the ROR1 antibody bound to the plate was detected. After reaction, it was color-developed by using TMB (Tetramethylbenzidine, Sigma, T0440). The enzymatic reaction was stopped by 0.5 mol/L of sulfuric acid, and the absorbances at 450 nm and 650 nm were measured by using a micro plate reader device (molecular device) (450 nm-650 nm).

T1 sequence (Q01973 30-937): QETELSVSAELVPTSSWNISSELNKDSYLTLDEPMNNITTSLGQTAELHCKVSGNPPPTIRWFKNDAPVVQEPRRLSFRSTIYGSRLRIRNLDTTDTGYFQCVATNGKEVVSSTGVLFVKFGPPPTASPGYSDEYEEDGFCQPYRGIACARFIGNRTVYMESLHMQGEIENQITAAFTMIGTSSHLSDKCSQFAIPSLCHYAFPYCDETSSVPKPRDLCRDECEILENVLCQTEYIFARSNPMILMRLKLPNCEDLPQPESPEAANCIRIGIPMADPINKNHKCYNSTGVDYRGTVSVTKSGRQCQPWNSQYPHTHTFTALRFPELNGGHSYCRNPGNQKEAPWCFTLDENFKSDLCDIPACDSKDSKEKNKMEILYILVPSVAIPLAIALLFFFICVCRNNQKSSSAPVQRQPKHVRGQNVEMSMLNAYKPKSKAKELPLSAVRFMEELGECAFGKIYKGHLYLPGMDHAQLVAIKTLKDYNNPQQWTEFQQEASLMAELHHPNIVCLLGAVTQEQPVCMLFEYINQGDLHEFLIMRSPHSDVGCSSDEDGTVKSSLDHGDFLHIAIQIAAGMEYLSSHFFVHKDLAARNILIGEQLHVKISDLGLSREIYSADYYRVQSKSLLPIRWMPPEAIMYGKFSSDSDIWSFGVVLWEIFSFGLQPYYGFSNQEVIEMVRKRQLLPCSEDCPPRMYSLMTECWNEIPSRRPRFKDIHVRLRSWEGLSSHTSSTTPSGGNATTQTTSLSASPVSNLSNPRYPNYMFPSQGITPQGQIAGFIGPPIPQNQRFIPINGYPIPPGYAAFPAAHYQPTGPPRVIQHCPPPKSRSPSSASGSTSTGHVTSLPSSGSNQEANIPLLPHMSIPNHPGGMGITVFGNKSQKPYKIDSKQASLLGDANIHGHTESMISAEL
T2 sequence (Q9Z139 30-406): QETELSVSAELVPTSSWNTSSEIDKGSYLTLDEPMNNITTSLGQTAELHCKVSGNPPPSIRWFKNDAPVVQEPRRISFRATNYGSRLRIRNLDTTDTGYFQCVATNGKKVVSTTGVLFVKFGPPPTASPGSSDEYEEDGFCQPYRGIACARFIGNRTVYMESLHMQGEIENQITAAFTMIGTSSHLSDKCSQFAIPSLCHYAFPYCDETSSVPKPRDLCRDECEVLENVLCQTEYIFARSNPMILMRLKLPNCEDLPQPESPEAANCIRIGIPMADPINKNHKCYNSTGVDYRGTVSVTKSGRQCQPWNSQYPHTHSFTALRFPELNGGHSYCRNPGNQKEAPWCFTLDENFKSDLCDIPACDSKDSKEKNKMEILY

Mean Fold Ratio [1]: 4.9
Mean Fold Ratio [2]: 17.6
Mean Fold Ratio [3]: 8.8
Mean Fold Ratio [4]: 2.4
Mean Fold Ratio [5]: 3.3
Mean Fold Ratio [6]: 3
binding result [7]: binds
B1: C2E3 anti-ROR1 IgG antibody (antibody, V domains shown)
VH: EVQLLESGGGLVQPGGSLRLSCAASGFTFSNYAMSWVRQAPGKGLEWVSSISHNSGSTYYADSVKGRFTISRDNSKNTLYLQMNSLRAEDTAVYYCAKFISARKSLGRSYSNGMDVWGQGTLVTVSS
VL: QSVLTQPPSASGTPGQRVTISCTGSSSNIGSNDVTWYQQLPGTAPKLLIYADSKRPSGVPDRFSGSKSGTSASLAISGLRSEDEADYYCGTWDYSLSGYVFGGGTKLTVLG
